Residue numbers refer to the chain shown, from its start.
T1: murine CCL3 (mouse, UniProt P10855 24-92)
T1 sequence: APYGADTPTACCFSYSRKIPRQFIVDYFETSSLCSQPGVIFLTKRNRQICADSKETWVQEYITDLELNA

T2: human CCL3 (human, UniProt P10147 23-92)
T2 construct: also called hCCL3
T2 sequence: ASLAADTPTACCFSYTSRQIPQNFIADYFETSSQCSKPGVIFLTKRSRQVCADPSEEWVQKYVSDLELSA

B1: R17 266NAGAQ270 (R17 with 266DSGSE270 mutated to 266NAGAQ270), C-terminal His construct (receptor)
chain: GPVGEPVASEINEASKVSSRLLTQDILFRKDRQATISLPIKLPVEDIITQTCDKITYGPLKFLDLLEKETAVLPLSTDITCPACLGRAVLVGKWECPAHVAVNESDLTVFGPNKEEHVPQFVTVQQPSDGKMQRLFFAKFLGTEESLAVLRVPGPDGHLCIQEALIHFKELSGAGVCSLWKANDSREEGLEMKQVDCLETTVLENQTCIATTLSKKIYHRLYCGERLMTGGQVSTRVLLTALGFYKRQPYTFHRVPKGMVYVHLINAGAQDYMEYSECEEVTPGRYEDKQISYTFYTDLFQTADGEPVLASVWGTSGLKDSAYESCAFVIPTKGRRKLVPRRIMSKCYPFRLTYHPSTMTVRLDVRVEKHHGATDQGFVFLKMESGTYSEGREYYLDRVLWGEDSSTNNVLQ
B2: R17GAG1 (R17 with residues 29 to 32 RKDR mutated to EDDE), C-terminal His construct (receptor)
chain: B1 chain with R29E, K30D, R32E, N266D, A267S, A269S, Q270E
notes: not shown: C-terminal 8-His tag
B3: R17GAG2 (R17 with residues 333 to 337 KGRRK mutated to DGEED), C-terminal His construct (receptor)
chain: B1 chain with N266D, A267S, A269S, Q270E, K333D, R335E, R336E, K337D
notes: as for B2
B4: R17 264GG(G)DS267 chemokine null mutant (264LIDS267 replaced by 264GG(G)DS267, with a glycine insert (receptor)
chain: GPVGEPVASEINEASKVSSRLLTQDILFRKDRQATISLPIKLPVEDIITQTCDKITYGPLKFLDLLEKETAVLPLSTDITCPACLGRAVLVGKWECPAHVAVNESDLTVFGPNKEEHVPQFVTVQQPSDGKMQRLFFAKFLGTEESLAVLRVPGPDGHLCIQEALIHFKELSGAGVCSLWKANDSREEGLEMKQVDCLETTVLENQTCIATTLSKKIYHRLYCGERLMTGGQVSTRVLLTALGFYKRQPYTFHRVPKGMVYVHGGGDSGSEDYMEYSECEEVTPGRYEDKQISYTFYTDLFQTADGEPVLASVWGTSGLKDSAYESCAFVIPTKGRRKLVPRRIMSKCYPFRLTYHPSTMTVRLDVRVEKHHGATDQGFVFLKMESGTYSEGREYYLDRVLWGEDSSTNNVLQ

Experiments:
murine CCL3 = target: T1, murine CCL3
murine CCL2 = target: T3, murine CCL2 (mouse, UniProt P10148 24-148); assay: SPR, mutant R17 on CM5 chip
T3 construct: also called mCCL2

[1] = target: CCL2 (species not given); assay: SPR, R17 variant on CM5 chip; column KD (nM), kinetic
[2] = target: CCL3 (species not given); assay: SPR, R17 variant on CM5 chip; column KDeq (nM); ka, kd, KD printed n/a
[3] = target: CCL2 (species not given); assay: SPR, R17 variant on CM5 chip; column kd x 10^-3 s-1
[4] = target: CCL2 (species not given); assay: SPR, R17 variant on CM5 chip; column ka x 10^6 M-1s-1
[5] = target: CCL2 (species not given); assay: SPR, R17 variant on CM5 chip; column KDeq (nM)
human CCL3 = target: T2, human CCL3; assay: SPR, R17 264GG(G)DS267 on CM5 chip, hCCL3 injected

T3 sequence (P10148 24-148 limits assumed): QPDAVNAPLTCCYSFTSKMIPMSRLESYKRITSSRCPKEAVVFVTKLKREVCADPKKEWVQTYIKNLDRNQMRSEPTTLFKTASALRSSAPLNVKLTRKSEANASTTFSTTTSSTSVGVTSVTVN

| Binder | Kd (murine CCL3) | koff (murine CCL3) | kon (murine CCL3) | t1/2 (murine CCL3) | binding result (murine CCL2) | Kd [1] | Kd [2] | koff [3] | kon [4] | Kd [5] | binding result (human CCL3) |
| --- | --- | --- | --- | --- | --- | --- | --- | --- | --- | --- | --- |
| B1 | 2.9 nM | 0.061 s⁻¹ | 3.1e+07 M⁻¹ s⁻¹ | 11.2 s | no binding |  |  |  |  |  |  |
| B2 |  |  |  |  |  | 10 nM | 0.8 nM | 0.0137 s⁻¹ | 1.2e+06 M⁻¹ s⁻¹ | 31 nM |  |
| B3 |  |  |  |  |  | 9.5 nM | 0.31 nM | 0.012 s⁻¹ | 1.2e+06 M⁻¹ s⁻¹ | 40 nM |  |
| B4 |  |  |  |  |  |  |  |  |  |  | no binding (tested: 100 nM) |
